Data on ten compounds can be found in patent US10034836B2, “Formulations of guanylate cyclase C agonists and methods of use” (SYNERGY PHARMACEUTICALS, INC., priority 2008, dated 2018).

Series [1] can be described thus: Stability in simulated intestinal fluid (SIF), biological activity by cGMP synthesis in T84 cells. It is filed as in vitro ADME. The protocol:
FIG. 2A: Biological activity of SP-304 incubated for varying lengths of time in simulated intestinal fluid (SIF). SP-304 samples were incubated for 0, 30, 60, 90, 150, and 300 min, respectively, and then tested for their ability to stimulate cGMP synthesis in T84 cells. The cGMP stimulation activity in the sample at 0 min of incubation time in SIF was taken as 100% biological activity. The activities of the other SP-304 incubation samples were calculated as the percentage of activity relative to that of the 0 min sample. Data points shown are the average of triplicate measurements±SD.
(§1) FIG. 7A: Biological activity of SP-333 incubated for varying lengths of time in simulated intestinal fluid (SIF). SP-333 samples incubated for 0, 5, 10, 30, 60, and 120 min, respectively, were tested for their ability to stimulate cGMP synthesis in T84 cells. The control sample marked as C120 was produced by incubating SP-333 with heat inactivated SIF for 120 min. Samples from the incubations were removed and heated at 95° C. for 5 min to inactivate digestive enzymes and then used to stimulate cyclic GMP synthesis in T84 cells. The cGMP stimulation activity in the sample at 0 min of incubation time in SIF was taken as 100% biological activity. The activities of the other SP-304 incubation samples were calculated as the percentage of activity relative to that of the 0 min sample. Data points shown are the average of triplicate measurements±SD.
as §1, with “FIG. 7B:” for “FIG. 7A:”, “of SP-332” for “of SP-333”, “incubating SP-332” for “incubating SP-333”
FIG. 7C: Biological activity of SP-304 incubated for varying lengths of time in simulated intestinal fluid (SIF). SP-304 samples incubated for 0, 10, and 60 min, respectively, were tested for their ability to stimulate cGMP synthesis in T84 cells. The control samples marked as C0 and C60 were produced by incubating SP-304 with heat inactivated SIF for 0 and 60 min, respectively. Samples from the incubations were removed and heated at 95° C. for 5 min to inactivate digestive enzymes and then used to stimulate cyclic GMP synthesis in T84 cells. The cGMP stimulation activity in the sample at 0 min of incubation time in SIF was taken as 100% biological activity. The activities of the other SP-304 incubation samples were calculated as the percentage of activity relative to that of the 0 min sample. […]
FIGS. 7G-1-7G-5: Incubation of SP-333 with SIF for 2, 6, 12 and 24 hrs. Effect of SIF digestion on the activity of SP-333 in T84 stimulation assay was determined (FIG. 7G-1) and samples were also analyzed by HPLC (FIGS. 7G2-5). […]
The stability of SP-304 was also evaluated after incubation with simulated intestinal fluid (SIF) by measuring its biological activity and by HPLC analyses (FIGS. 2A & 2B). […]

The next series concerns the target T1, intestinal GC-C receptor (Homo sapiens, UniProt P25092).
T1 construct: confluent monolayers of T-84 cells in 24-well plates; host or cells: T84 human colon carcinoma cells
The series is described as follows: Cyclic GMP stimulation assay in T84 cells. It is filed as cell-based. The conditions noted are these: for potency in cGMP stimulation assay relative to SP-339 (linaclotide): 30 min exposure (FIG. 6); for potency to stimulate cGMP synthesis in T84 cells relative to SP-333: peggylated analogs of SP-333, 30 min (FIG. 8); for ability to stimulate cGMP synthesis in T84 cells relative to SP-304: 30 min exposure (FIG. 5). An excerpt:
FIG. 4: Biological activity of truncated peptides of 16-mer SP-304, as measured by stimulation of cGMP synthesis in T84 cells. SP-338 15-mer peptide is indentical to SP-304 except that it lacks Leu at the C-terminus. SP-327, SP-329 and SP-331 lack Leu at their C-termini relative to their corresponding parents, SP-326, SP-328 and SP-330, respectively. Data points shown are the average of duplicate measurements.
FIG. 5: Stimulation of cGMP synthesis in T84 cells by SP-304 and similar analogs. T84 cells were exposed to test peptides for 30 min and cell lysates were then used to determine intracellular cGMP levels. Data points shown are the average of triplicate measurements±SD.
FIG. 6: Stimulation of cGMP synthesis in T84 cells by SP-339 (linaclotide) and other linaclotide analogs. T84 cells were exposed to test peptides for 30 min and cell lysates were then used to determine intracellular cGMP levels. Data points shown are the average of triplicate measurements±SD.
FIG. 8: Stimulation of cGMP synthesis in T84 cells by the peggylated analogs of SP-333. T84 cells were exposed to the indicated peptides for 30 min and cell lysates were used to determine intracellular cGMP levels. Data points shown are the average of triplicate measurements±SD.
After the 30 min incubation, the medium was aspirated and the reaction was terminated by the addition of 3% perchloric acid. Following centrifugation and the addition of NaOH (0.1 N) to neutralize the pH, intracellular cGMP levels were determined in lysates using a cGMP ELISA kit (Cat. No. 581021; Cayman Chemical, Ann Arbor, Mich.). Peptide incubations were run in duplicate, and samples taken from each incubation were run as duplicates in the ELISA test.
The ability of the GCC agonist peptide to bind to and activate the intestinal GC-C receptor was tested using T84 human colon carcinoma cell line. Human T84 colon carcinoma cells were obtained from the American Type Culture Collection. Cells were grown in a 1:1 mixture of Ham's F-12 medium and Dulbecco's modified Eagle's medium (DMEM) supplemented with 10% fetal bovine serum, 100 U penicillin/ml, and 100 μg/ml streptomycin. The cells were fed fresh medium every third day and split at a confluence of approximately 80%.
Biological activity of the GCC agonist peptides was assayed as previously reported (Shailubhai, et al., Cancer Research 60, 5151-5157 (2000)). Briefly, the confluent monolayers of T-84 cells in 24-well plates were washed twice with 250 μl of DMEM containing 50 mM HEPES (pH 7.4), pre-incubated at 37° C. for 10 min with 250 μl of DMEM containing 50 mM HEPES (pH 7.4) and 1 mM isobutylmethylxanthine (IBMX), followed by incubation with GCC agonist peptides (0.1 nM to 10 µM) for 30 min. The medium was aspirated, and the reaction was terminated by the addition of 3% perchloric acid. Following centrifugation, and neutralization with 0.1 N NaOH, the supernatant was used directly for measurements of cGMP using an ELISA kit (Caymen Chemical, Ann Arbor, Mich.).
An additional strategy to render peptides more resistant towards digestion by digestive proteases is to peggylate them at the N- and C-terminus. The peptide SP-333 was peggylated with the aminoethyloxy-ethyloxy-acetic acid (Aeea) group at the C-terminus (SP-347) or at the N-terminus (SP-350) or at both termini (SP-343). Cyclic GMP synthesis in T84 cells was measured by the method as described above.

Where a SMILES comes first, the peptide text is derived from it. Bridges are numbered along the chain shown (N, C = ends). Primed or numbered codes have the meaning given here. Where no end group is shown, it is not given here. [ ]: non-standard residue; d: D form. PEG3′ = polyethylene glycol such as aminoethyloxy-ethyloxy-acetic acid (AeeA), and polymers thereof

T1 sequence (P25092 24-1073): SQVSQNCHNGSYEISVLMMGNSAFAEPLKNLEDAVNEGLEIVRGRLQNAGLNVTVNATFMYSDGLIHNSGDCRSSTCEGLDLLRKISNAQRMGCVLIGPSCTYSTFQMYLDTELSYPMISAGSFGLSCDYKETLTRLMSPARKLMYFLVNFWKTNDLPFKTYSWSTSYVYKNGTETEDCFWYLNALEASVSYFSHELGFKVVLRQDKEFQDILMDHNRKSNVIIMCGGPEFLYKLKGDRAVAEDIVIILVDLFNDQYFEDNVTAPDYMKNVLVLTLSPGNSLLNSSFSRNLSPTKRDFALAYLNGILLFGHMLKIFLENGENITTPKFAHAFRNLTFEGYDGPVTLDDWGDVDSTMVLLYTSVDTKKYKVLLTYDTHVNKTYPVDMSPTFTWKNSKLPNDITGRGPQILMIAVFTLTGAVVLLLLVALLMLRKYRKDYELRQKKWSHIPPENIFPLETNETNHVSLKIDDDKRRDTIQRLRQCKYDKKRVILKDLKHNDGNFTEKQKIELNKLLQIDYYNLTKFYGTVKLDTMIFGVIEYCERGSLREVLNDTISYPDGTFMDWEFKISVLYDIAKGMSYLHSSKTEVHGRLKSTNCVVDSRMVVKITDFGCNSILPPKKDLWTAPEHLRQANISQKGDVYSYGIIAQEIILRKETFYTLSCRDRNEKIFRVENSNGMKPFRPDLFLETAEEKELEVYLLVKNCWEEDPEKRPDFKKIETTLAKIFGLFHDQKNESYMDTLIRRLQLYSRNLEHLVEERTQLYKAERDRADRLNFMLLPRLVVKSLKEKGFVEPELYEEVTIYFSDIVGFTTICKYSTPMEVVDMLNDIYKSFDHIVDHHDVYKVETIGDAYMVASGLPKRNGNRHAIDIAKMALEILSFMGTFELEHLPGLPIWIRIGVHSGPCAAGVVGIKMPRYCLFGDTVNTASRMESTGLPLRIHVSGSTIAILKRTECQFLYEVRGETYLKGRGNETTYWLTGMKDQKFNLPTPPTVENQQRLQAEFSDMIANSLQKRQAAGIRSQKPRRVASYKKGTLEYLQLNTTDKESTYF

For the compound `CC(C)C[C@@H]1NC(=O)[C@H](CCC(=O)O)NC(=O)[C@@H](NC(=O)[C@H](CCC(=O)O)NC(=O)[C@H](CC(=O)O)NC(=O)[C@@H](N)CC(N)=O)CSSC[C@@H]2NC(=O)[C@H](C)NC(=O)[C@H](C(C)C)NC(=O)[C@H](CC(N)=O)NC(=O)[C@H](C(C)C)NC(=O)[C@H](CSSC[C@@H](C(=O)N[C@H](CC(C)C)C(=O)O)NC(=O)CNC(=O)[C@H]([C@@H](C)O)NC2=O)NC1=O` [SP-332, Asn^1-Asp^2-Glu^3-Cys^4-Glu^5-Leu^6-Cys^7-Val^8-Asn^9-Val^10-Ala^11-Cys^12-Thr^13-Gly^14-Cys^15-dLeu^16] (H-NDECELCVNVACTGC[dL]-OH; disulfide 4-12, 7-15), the “potency following incubation with SIF” value in series [1] is on record as “minor reduction in potency”.
For the compound “Asn^1-Asp^2-Glu^3-Cys^4-Glu^5-Leu^6-Cys^7-Val^8-Asn^9-Val^10-Ala^11-Cys^12-Thr^13-Gly^14-Cys^15 (NDECELCVNVACTGC) [SP-338]”, the “biological activity retained relative to full length 16-mer SP-304 (cGMP synthesis in T84 cells)” value with intestinal GC-C receptor (peptide 1.0 μM, 30 min (FIG. 4)) is recorded as “about 80%”.
In the case of “Asn^1-Phe^2-Cys^3-Cys^4-Glu^5-Phe^6-Cys^7-Cys^8-Asn^9-Pro^10-Ala^11-Cys^12-Thr^13-Gly^14-Cys^15-Tyr^16 (NFCCEFCCNPACTGCY; disulfide 4-12, 7-15, 3-8) [SP-354]”, the “potency in cGMP stimulation assay relative to SP-339 (linaclotide)” value in the series with intestinal GC-C receptor is recorded as “virtually identical to SP-339”.
Turning to “Asn^1-Phe^2-Cys^3-Cys^4-Glu^5-Ser^6-Cys^7-Cys^8-Asn^9-Pro^10-Ala^11-Cys^12-Thr^13-Gly^14-Cys^15-Tyr^16 (NFCCESCCNPACTGCY; disulfide 4-12, 7-15, 3-8) [SP-353]”, the “potency in cGMP stimulation assay relative to SP-339 (linaclotide)” value in the series with intestinal GC-C receptor is reported as “more potent than SP-339”.
Still for that read-out and setting: the same measure for “Cys^1-Cys^2-Glu^3-Tyr^4-Cys^5-Cys^6-Asn^7-Pro^8-Ala^9-Cys^10-Thr^11-Gly^12-Cys^13-dTyr^14 [SP-355]”: “considerably less potency”.
As for “PEG3-dAsn^1-Asp^2-Glu^3-Cys^4-Glu^5-Leu^6-Cys^7-Val^8-Asn^9-Val^10-Ala^11-Cys^12-Thr^13-Gly^14-Cys^15-dLeu^16 ([PEG3′][dN]DECELCVNVACTGC[dL]; ends and bridges not checked) [SP-350]”, in the series with intestinal GC-C receptor, the “potency to stimulate cGMP synthesis in T84 cells relative to SP-333” value was “comparable to SP-333”.
As for “PEG3-dAsn^1-Asp^2-Glu^3-Cys^4-Glu^5-Leu^6-Cys^7-Val^8-Asn^9-Val^10-Ala^11-Cys^12-Thr^13-Gly^14-Cys^15-dLeu^16-PEG3 ([PEG3′][dN]DECELCVNVACTGC[dL][PEG3′]; ends and bridges not checked) [SP-343]”, in the series with intestinal GC-C receptor, the “potency to stimulate cGMP synthesis in T84 cells relative to SP-333” value is “considerably less potent”.
Still for that read-out and setting: in the case of “dAsn^1-Asp^2-Glu^3-Cys^4-Glu^5-Leu^6-Cys^7-Val^8-Asn^9-Val^10-Ala^11-Cys^12-Thr^13-Gly^14-Cys^15-dLeu^16-PEG3 ([dN]DECELCVNVACTGC[dL][PEG3′]; ends and bridges not checked) [SP-347]” it was “comparable to SP-333”.
For “dAsn^1-Asp^2-Glu^3-Cys^4-Glu^5-dLeu^6-Cys^7-Val^8-Asn^9-Val^10-Ala^11-Cys^12-Thr^13-Gly^14-Cys^15-dLeu^16 ([dN]DECE[dL]CVNVACTGC[dL]; ends and bridges not checked) [SP-337]”, the “ability to stimulate cGMP synthesis in T84 cells relative to SP-304” value in the series with intestinal GC-C receptor is recorded as “virtually complete loss of biological activity”.
As to “dAsn^1-dAsp^2-dGlu^3-Cys^4-Glu^5-Leu^6-Cys^7-Val^8-Asn^9-Val^10-Ala^11-Cys^12-Thr^13-Gly^14-Cys^15-dLeu^16 ([dN][dD][dE]CELCVNVACTGC[dL]; disulfide (positions not given here); also: disulfides, number and pairing not given here) [SP-335]”, the “ability to stimulate cGMP synthesis in T84 cells relative to SP-304” value with intestinal GC-C receptor is “comparable ability”.
